{
  "source": "patent US20070258992A1",
  "biological_target": "mouse synaptosomes",
  "experiment": "inhibition of active BoNT/A binding to synaptosomes",
  "data": [
    {"substance": "inactive BoNT/A (formaldehyde-inactivated toxoid) (from UniProt P0DPI0 2-1296)", "values": [
      {"measurement": "maximum inhibition", "result": 98, "unit": "%"}
    ]}
  ]
}
